Measurements: patent US20220143148A1, “COMPOSITIONS AND METHODS FOR MODULATING CGRP SIGNALING TO REGULATE INTESTINAL INNATE LYMPHOID CELLS” (The Broad Institute, Inc., priority 2019, published 2022)

System: small intestinal immune cells
Assay: Droplet-based scRNA-seq of small intestinal immune cells (LP and PP), OVA vs PBS, clustering and differential expression
Type: in vivo, mouse
From the text: To comprehensively characterize small intestinal immune cells, Applicants generated scRNA-Seq profiles for 58,067 immune cells collected from lamina propria (LP) and Peyer's patch (PP) regions at steady state and after induction of a type 2 inflammatory reaction to ovalbumin (OVA) (Brandt et al., 2003) (FIGS. 1A and 8A). To ensure sufficient representation of rare cells, Applicants combined a normalization strategy—removing by flow sorting either a portion of IgD+ naïve B cells, which are the most abundant cell type in PPs, or all CD19+ and CD3+ T cells (FIG. 8B, Methods)—with profiling of a sufficiently large number of cells number (P>0.99 to recover at least 15 cells from each cluster, Methods) by massively parallel scRNA-seq (Haber et al., 2017) (Methods). Applicants obtained 36,797 and 21,270 high quality cells passing initial filtering (Methods) from PP and LP regions, respectively.
Overall, Applicants annotated 27 cell subsets across the two compartments, spanning T cells, B cells, ILCs, dendritic cells (DCs), myeloid cells and stromal cells, in frequencies ranging from 0.07% to 14%. Briefly, Applicants first partitioned the cells from the PP regions by unsupervised clustering (Methods) into 46 clusters, retained the 97% of cells that were robustly assigned cell identities in each cluster (Methods), assigned the cells from the LP regions to the 46 clusters using a classifier (Methods), and visualized the data with scvis (Ding et al., 2018), a deep generative model-based method (FIGS. 1B and 8C, Methods). Next, Applicants identified genes that were differentially expressed between the cells in each cluster and the remaining cells (Table 1, Methods), as well as between pairs of clusters (Table 2), to elucidate identities of similar cell types/states. Applicants excluded from downstream analysis clusters mostly consisting of contaminants from epithelium, likely doublets, or cells with a small number of Unique Molecular Identifiers (UMIs) (FIGS. 1C and 8D), or lacking distinct markers (Methods). Altogether, Applicants retained 27 clusters spanning 85% of the cells and each associated with distinct marker genes (FIG. 8E, Methods).
To induce allergic reaction to OVA, 6 to 7 weeks old mice were sensitized twice, two weeks apart, with 50 μg of OVA plus 1 mg of aluminum potassium sulfate adjuvant via intraperitoneal injection. Two weeks later, mice were orally administered with 50 mg of OVA on every other day for a total of five times. 1 μg of α-CGRP peptide was administered simultaneously when indicated. Mice were deprived of food for 3-4 hours in cages with wood chip bedding for limiting antigen degradation in the stomach before each intragastric challenge.
Isolation of cells from Peyer's patches (PPs). Peyer's patches (PPs) were carefully dissected from the small intestine under a stereo microscope using a fine scissor, pierced once with a fine forcep. Tissues were digested in freshly made digestion buffer (RPMI-1640 containing 100 μg/ml Liberase™ and 50 μg/ml DNase I at 37° C. on a roto-mixer. After 15 min, tissues were very gently mixed using a 1 ml pipette. The supernatant was collected and added to ice-cold MACS buffer (pH 7.4; PBS plus 2% FCS and 2 mM EDTA). Pre-warmed (37° C.) fresh digestion buffer was added to the remaining tissues. After rotation at 37° C. for 15 min, the mixture was vigorously mixed using a 1 ml pipette for 1 min. Supernatants from the two steps were combined and passed through 70 μm filters and stained for FACS (below).
Isolation of cells from the lamina propria (LP). The small intestines were opened longitudinally and washed in ice-cold PBS. For scRNA-seq, roughly 0.5 cm of fragments from each of the distal, middle and proximal regions without visible PPs were collected. Epithelial cells were dissociated by tissue rotation in pre-warmed (37° C.) PBS containing 10 mM EDTA at 37° C. for 15 min, followed by additional incubation on ice for 15 min. Tissues were then shaken vigorously. […]

B1: OVA (protein, UniProt P01012 2-386, looked up)
Ovalbumin: GSIGAASMEFCFDVFKELKVHHANENIFYCPIAIMSALAMVYLGAKDSTRTQINKVVRFDKLPGFGDSIEAQCGTSVNVHSSLRDILNQITKPNDVYSFSLASRLYAEERYPILPEYLQCVKELYRGGLEPINFQTAADQARELINSWVESQTNGIIRNVLQPSSVDSQTAMVLVNAIVFKGLWEKAFKDEDTQAMPFRVTEQESKPVQMMYQIGLFRVASMASEKMKILELPFASGTMSMLVLLPDEVSGLEQLESIINFEKLTEWTSSNVMEERKIKVYLPRMKMEEKYNLTSVLMAMGITDVFSSSANLSGISSAESLKISQAVHAAHAEINEAGREVVGSAEAGVDAASVSEEFRADHPFLFCIKHIATNAVLFFGRCVSP
Cluster ID 4, PP, OVA vs PBS
  D16Ertd472e: LN (average fold change): −0.412
  Dnaja1: LN (average fold change): −0.300
  Dnajb9: LN (average fold change): −0.322
  Egln3: LN (average fold change): −0.350
  Fam46a: LN (average fold change): −0.500
  Fibp: LN (average fold change): −0.268
  Furin: LN (average fold change): −0.203
  Gatad1: LN (average fold change): −0.316
  Gcnt2: LN (average fold change): −0.352
  Gimap3: LN (average fold change): 0.275
  Git2: LN (average fold change): 0.350
  Gnb1: LN (average fold change): −0.255
  H2-T23: LN (average fold change): −0.260
  Herpud1: LN (average fold change): −0.214
  Icos: LN (average fold change): −0.291
  Il2ra: LN (average fold change): 0.378
  Il18r1: LN (average fold change): 0.193
  Irf2: LN (average fold change): 0.312
  Irs2: LN (average fold change): −0.372
  Itgav: LN (average fold change): −0.394
  Klf13: LN (average fold change): −0.255
  Klrk1: LN (average fold change): −0.613
  Leng9: LN (average fold change): −0.375
  Map3k14: LN (average fold change): −0.515
  Mast4: LN (average fold change): −0.207
  Mbnl2: LN (average fold change): −0.436
  Minos1: LN (average fold change): 0.218
  Morf4l2: LN (average fold change): −0.252
  Neat1: LN (average fold change): 0.447
  Nedd8: LN (average fold change): 0.234
  Plekhg1: LN (average fold change): −0.229
  Ppp1r16b: LN (average fold change): −0.157
  Ppp2ca: LN (average fold change): −0.432
  Ptger2: LN (average fold change): 0.347
  Ptpn7: LN (average fold change): 0.323
  Raf1: LN (average fold change): 0.457
  Ramp3: LN (average fold change): −0.380
  Rassf5: LN (average fold change): 0.506
  Rcn2: LN (average fold change): −0.225
  Rel: LN (average fold change): −0.354
  Rgs1: LN (average fold change): −0.221
  Rgs3: LN (average fold change): 0.447
  Rnf19b: LN (average fold change): −0.242
  Rpa3: LN (average fold change): 0.541
  S100a6: LN (average fold change): 0.370
  S100a10: LN (average fold change): 0.215
  Saraf: LN (average fold change): −0.187
  Sat1: LN (average fold change): 0.222
  Scn1b: LN (average fold change): −0.273
  Sec11a: LN (average fold change): 0.283
  Serpina3g: LN (average fold change): 0.347
  Serpinb6b: LN (average fold change): −0.432
  Ssna1: LN (average fold change): 0.346
  Taf7: LN (average fold change): −0.409
  Taf10: LN (average fold change): −0.422
  Tagap: LN (average fold change): 0.423
  Tcrg-C1: LN (average fold change): 0.484
  Tgoln1: LN (average fold change): −0.209
  Timm13: LN (average fold change): 0.230
  Tnf: LN (average fold change): 0.465
  Trim8: LN (average fold change): 0.530
  Trps1: LN (average fold change): −0.444
  Tsc22d3: LN (average fold change): 0.359
  Tspan32: LN (average fold change): 0.324
  Ttc19: LN (average fold change): −0.499
  Tuba4a: LN (average fold change): −0.342
  Tubb4b: LN (average fold change): −0.252
  Txk: LN (average fold change): −0.188
  Vegfa: LN (average fold change): −0.252
  VgIl4: LN (average fold change): −0.302
  Zc3hav1: LN (average fold change): −0.303
  Zfand5: LN (average fold change): −0.245
Cluster ID 5, PP
  1810037l17Rik: percentage of expressing cells in OVA-treated group: 0.446
  Bcl2: percentage of expressing cells in OVA-treated group: 0.863
  Calm1: percentage of expressing cells in OVA-treated group: 0.868
  Cd74: percentage of expressing cells in OVA-treated group: 0.501
  Crlf3: percentage of expressing cells in OVA-treated group: 0.569
  Ctsc: percentage of expressing cells in OVA-treated group: 0.268
  Ddit4: percentage of expressing cells in OVA-treated group: 0.369
  Dnaja1: percentage of expressing cells in OVA-treated group: 0.591
  Dnajb1: percentage of expressing cells in OVA-treated group: 0.206
  Dusp1: percentage of expressing cells in OVA-treated group: 0.206
  DynIl1: percentage of expressing cells in OVA-treated group: 0.7
  Gramd3: percentage of expressing cells in OVA-treated group: 0.475
  Hspa8: percentage of expressing cells in OVA-treated group: 0.977
  Ier2: percentage of expressing cells in OVA-treated group: 0.428
  Ifngr1: percentage of expressing cells in OVA-treated group: 0.563
  Igha: percentage of expressing cells in OVA-treated group: 0.197
  Il7r: percentage of expressing cells in OVA-treated group: 0.48
  Ilk: percentage of expressing cells in OVA-treated group: 0.2
  Jund: percentage of expressing cells in OVA-treated group: 0.654
  Klf6: percentage of expressing cells in OVA-treated group: 0.368
  Klhl6: percentage of expressing cells in OVA-treated group: 0.332
  Lfng: percentage of expressing cells in OVA-treated group: 0.333
  Ltb: percentage of expressing cells in OVA-treated group: 0.865
  Pdcd4: percentage of expressing cells in OVA-treated group: 0.66
  Pik3ip1: percentage of expressing cells in OVA-treated group: 0.556
  Ppp1r15a: percentage of expressing cells in OVA-treated group: 0.219
  Ppp2ca: percentage of expressing cells in OVA-treated group: 0.277
  Ppp3cc: percentage of expressing cells in OVA-treated group: 0.152
  Racgap1: percentage of expressing cells in OVA-treated group: 0.21
  Rnaset2a: percentage of expressing cells in OVA-treated group: 0.709
  Sfpq: percentage of expressing cells in OVA-treated group: 0.284
  Slc9a3r1: percentage of expressing cells in OVA-treated group: 0.428
  Tdrp: percentage of expressing cells in OVA-treated group: 0.228
  Tpm3: percentage of expressing cells in OVA-treated group: 0.665
  Tsc22d3: percentage of expressing cells in OVA-treated group: 0.84
  Tuba1a: percentage of expressing cells in OVA-treated group: 0.302
  Txnip: percentage of expressing cells in OVA-treated group: 0.605
  Uba52: percentage of expressing cells in OVA-treated group: 0.984
  Ucp2: percentage of expressing cells in OVA-treated group: 0.773
  Wdr89: percentage of expressing cells in OVA-treated group: 0.996
  Zfp36l2: percentage of expressing cells in OVA-treated group: 0.617
Cluster ID 5, PP, OVA vs PBS
  1810037l17Rik: LN (average fold change): −0.158
  Bcl2: LN (average fold change): 0.658
  Calm1: LN (average fold change): −0.192
  Cd74: LN (average fold change): −0.211
  Crlf3: LN (average fold change): 0.370
  Ctsc: LN (average fold change): 0.402
  Ddit4: LN (average fold change): 0.426
  Dnaja1: LN (average fold change): −0.416
  Dnajb1: LN (average fold change): −0.867
  Dusp1: LN (average fold change): −0.321
  DynIl1: LN (average fold change): −0.370
  Gramd3: LN (average fold change): 0.481
  Hspa8: LN (average fold change): −0.255
  Ier2: LN (average fold change): −0.174
  Ifngr1: LN (average fold change): 0.536
  Igha: LN (average fold change): 0.503
  Il7r: LN (average fold change): 0.612
  Ilk: LN (average fold change): 0.159
  Jund: LN (average fold change): −0.319
  Klf6: LN (average fold change): −0.374
  Klhl6: LN (average fold change): 0.485
  Lfng: LN (average fold change): −0.281
  Ltb: LN (average fold change): −0.238
  Pdcd4: LN (average fold change): 0.394
  Pik3ip1: LN (average fold change): 0.361
  Ppp1r15a: LN (average fold change): −0.287
  Ppp2ca: LN (average fold change): −0.469
  Ppp3cc: LN (average fold change): 0.621
  Racgap1: LN (average fold change): 0.436
  Rnaset2a: LN (average fold change): 0.225
  Sfpq: LN (average fold change): −0.373
  Slc9a3r1: LN (average fold change): −0.256
  Tdrp: LN (average fold change): −0.354
  Tpm3: LN (average fold change): 0.282
  Tsc22d3: LN (average fold change): 0.772
  Tuba1a: LN (average fold change): −0.250
